Biological target: MBP-DIC1 (UniProt O14576 1-645)
Test: pull-down

Chain of MBP-DIC1 (O14576 whole entry): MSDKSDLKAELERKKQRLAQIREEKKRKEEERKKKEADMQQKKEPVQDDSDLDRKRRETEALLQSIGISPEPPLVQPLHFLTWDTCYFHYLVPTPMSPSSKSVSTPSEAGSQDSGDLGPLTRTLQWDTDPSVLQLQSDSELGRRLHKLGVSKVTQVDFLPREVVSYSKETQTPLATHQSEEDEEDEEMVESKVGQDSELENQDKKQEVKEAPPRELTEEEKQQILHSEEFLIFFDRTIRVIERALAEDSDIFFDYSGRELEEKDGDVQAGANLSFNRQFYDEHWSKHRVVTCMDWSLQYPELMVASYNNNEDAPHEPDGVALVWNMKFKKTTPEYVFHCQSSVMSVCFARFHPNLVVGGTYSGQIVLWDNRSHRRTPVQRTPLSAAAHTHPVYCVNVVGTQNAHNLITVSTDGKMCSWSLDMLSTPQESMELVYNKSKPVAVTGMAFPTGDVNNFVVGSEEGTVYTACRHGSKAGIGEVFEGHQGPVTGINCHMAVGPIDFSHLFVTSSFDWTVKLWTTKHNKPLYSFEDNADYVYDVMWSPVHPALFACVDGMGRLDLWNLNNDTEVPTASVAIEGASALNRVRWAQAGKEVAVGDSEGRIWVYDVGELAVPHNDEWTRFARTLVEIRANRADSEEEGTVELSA

B1: GST-CSN7A (natural protein)
chain: MSAEVKVTGQNQEQFLLLAKSAKGAALATLIHQVLEAPGVYVFGELLDMPNVRELAESDFASTFRLLTVFAYGTYADYLAEARNLPPLTEAQKNKLRHLSVVTLAAKVKCIPYAVLLEALALRNVRQLEDLVIEAVYADVLRGSLDQRNQRLEVDYSIGRDIQRQDLSAIARTLQEWCVGCEVVLSGIEEQVSRANQHKEQQLGLKQQIESEVANLKKTIKVTTAAAAAATSQDPEQHLTELREPAPGTNQRQPSKKASKGKGLRGSAKIWSKSN
binding result: binds

Source: article doi:10.1101/2025.04.08.647777 (bioRxiv, 2025)
